According to EP1659133:

What was measured:
[1] = biological target: RSV F protein (C-terminal truncated) (respiratory syncytial virus, UniProt P03420); assay: SPR
[2] = biological target: T1, RSV F protein from infected HEp2 cell lysate (respiratory syncytial virus, UniProt P03420); assay: ELISA, apparent (unit printed as 10mm)
[3] = biological target: T1, RSV F protein from infected HEp2 cell …; assay: ELISA, apparent

RSV F protein (C-terminal truncated), sequence (P03420 26-524): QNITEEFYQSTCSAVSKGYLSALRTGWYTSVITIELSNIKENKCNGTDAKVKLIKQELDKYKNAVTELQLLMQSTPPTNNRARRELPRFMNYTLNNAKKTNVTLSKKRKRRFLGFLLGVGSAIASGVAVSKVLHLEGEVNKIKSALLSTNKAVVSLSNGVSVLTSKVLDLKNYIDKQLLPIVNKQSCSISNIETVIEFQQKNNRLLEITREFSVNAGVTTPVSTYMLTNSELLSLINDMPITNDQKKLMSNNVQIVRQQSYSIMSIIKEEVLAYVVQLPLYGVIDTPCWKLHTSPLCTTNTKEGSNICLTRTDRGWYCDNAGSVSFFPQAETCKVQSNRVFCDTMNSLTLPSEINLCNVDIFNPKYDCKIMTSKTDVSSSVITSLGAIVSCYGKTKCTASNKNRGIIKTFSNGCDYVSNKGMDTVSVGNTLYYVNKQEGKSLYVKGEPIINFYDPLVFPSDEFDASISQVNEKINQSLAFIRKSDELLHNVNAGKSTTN
T1 sequence (P03420 26-524): as above

| Binder | Kd [1] | Kd [2] | Kd [3] |
| --- | --- | --- | --- |
| H1308F (antibody, V domains shown) VH: QVQLVQSGAEVKKPGASVKVSCKASGFNIKDYYIYWVRQAPGQGLEWIGWIDPENGNTVFDPKFQGRVTMTRDTSTSTVYMELSSLRSEDTAVYYCAYYGTSSFDFWGQGTTLTVSS VL: DIQMTQSPSTLSASVGDRVTITCKASQDINRYLNWYQQKPGKAPKLLIYRANRLVDGVPSRFSGSGSGTEFTLTISSLQPDDFATYYCLQFHEFPYTFGGGTKLEIK | 2.5 nM |  |  |
| M1308F (antibody, V domains shown) VH: EVQLQQSGAELVRPGALVKLSCKASGFNIKDYYIYWVKQRPEQGLEWIGWIDPENGNTVFDPKFQGKASITSDTSSNTAYLQLSSLTSEDTAVYYCAYYGTSSFDFWGQGTTLTVSS VL: DIKMTQSPSSMYVSLGERVTITCKASQDINRYLNWFQQKPGKSPKTLIHRANRLVDGVPSRFSGSGSGQEYSLTISSLEFEDMGIYYCLQFHEFPYTFGGGTKLEIK | 1.1 nM |  |  |
| CH1129 (M1129HuGamma1,Kappa) (antibody, V domains shown) VH: QVELQESGPGILQPSQTLSLTCSFSGFSLSTSGMSVGWIRQPSGEGLEWLADIWWDDKKDYNPSLKSRLTISKDTSSNQVFLKITGVDTADTATYYCARSMITNWYFDVWGAGTTVTVSS VL: DIQLTQSPAIMSASPGEKVTMTCSASSSVGYMHWYQQKSSTSPKLWIYDTSKLASGVPGRFSGSGSGNSYSLTISSIQAEDVATYYCFQGSGYPFTFGGGTKLEIK | 1.5 nM | 10 nM |  |
| H1129 (humanized 1129) (antibody, V domains shown) VH: QVTLRESGPALVKPSQTLTLTCSFSGFSLSTSGMSVGWIRQPSGKALEWLADIWWDDKKDYNPSLKSRLTISKDTSKNQVVLKVTNVDPADTATYYCARSMITNWYFDVWGAGTTVTVSS VL: DIQMTQSPSTLSASVGDRVTITCKCQLSVGYMHWYQQKPGKAPKLWIYDTSKLASGVPSRFSGSGSGTEFTLTISSLQPDDFATYYCFQGSGYPFTFGGGTKLEIK | 1.4 nM |  | 0.7 nM |
| M1129 (antibody, V domains shown) VH: QVELQESGPGILQPSQTLSLTCSFSGFSLSTSGMSVGWIRQPSGEGLEWLADIWWDDKKDYNPSLKSRLTISKDTSSNQVFLKITGVDTADTATYYCARSMITNWYFDVWGAGTTVTVSS VL: DIQLTQSPAIMSASPGEKVTMTCSASSSVGYMHWYQQKSSTSPKLWIYDTSKLASGVPGRFSGSGSGNSYSLTISSIQAEDVATYYCFQGSGYPFTFGGGTKLEIK | 11.4 nM |  |  |
